Experimental findings from US20080311034A1 (published 2008) are described below.

The target of assay [1] is T1, recombinant polyhistidine tagged mouse FcγRI (R&D Systems) (mouse, UniProt P26151 25-297).
T1 construct: Bought; also called murine FcγRI
T1 sequence (looked up): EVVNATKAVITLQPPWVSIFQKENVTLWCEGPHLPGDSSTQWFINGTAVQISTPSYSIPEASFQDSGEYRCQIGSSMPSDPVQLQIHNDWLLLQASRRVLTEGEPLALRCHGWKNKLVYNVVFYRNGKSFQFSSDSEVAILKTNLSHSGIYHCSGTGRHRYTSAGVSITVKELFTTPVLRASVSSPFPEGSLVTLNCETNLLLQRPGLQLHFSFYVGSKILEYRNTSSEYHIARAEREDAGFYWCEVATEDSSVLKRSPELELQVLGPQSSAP
In words: ELISA, His-tagged mouse receptor captured on copper-coated plate. The method, then:
(§1) Commercially-available recombinant polyhistidine tagged mouse FcγRI, FcγRII, FcγRIII, and FcγRIV (R&D Systems) were diluted to 1 μg/ml in PBS and 100 μl/well was captured onto copper-coated plates (Pierce) overnight at 4° C. Plates were washed three times with wash buffer (0.15M NaCl, 0.02% Tween 20). Non-specific binding was blocked using 200 μl/well SuperBlock (Pierce) for 15 minutes at room temperature. Plates were washed three times as above. […] Plates were washed three times as above to remove unbound mAb. CNTO 860 variants that bound to plated receptors were detected using 100 μl/well HRP-labeled goat F(ab′)₂ anti-human IgG F(ab′)₂ (Jackson ImmunoResearch) diluted 1:5,000 in PBS incubated at room temperature for 1 hour. Plates were washed five times using wash buffer as above, and developed using 100 μl/well TMB Stable Stop substrate (Fitzgerald Industries) stopped with 0.5M HCl. Absorbance was detected at 450 nm.
(§2) All binding assays were in an ELISA format, with recombinant soluble receptor captured on coated EIA plates.
(In general: ELISA stands for enzyme-linked immunosorbent assay.)

Assay [2] has as its target T2, recombinant polyhistidine tagged mouse FcγRIV (R&D Systems) (mouse, UniProt A0A0B4J1G0 21-203).
T2 construct: Bought
T2 sequence: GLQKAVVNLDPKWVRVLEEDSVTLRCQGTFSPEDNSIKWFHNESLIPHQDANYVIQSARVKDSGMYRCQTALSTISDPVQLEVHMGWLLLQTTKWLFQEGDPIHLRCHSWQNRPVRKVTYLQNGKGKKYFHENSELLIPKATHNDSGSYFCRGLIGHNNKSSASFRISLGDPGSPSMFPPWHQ
The description is as above. The method, then:
as §1, §2

The target of assay [3] is T3, recombinant polyhistidine tagged mouse FcγRII (R&D Systems) (mouse, UniProt P08101 40-217, limits assumed).
T3 construct: Bought; also called FcRII
T3 sequence (looked up): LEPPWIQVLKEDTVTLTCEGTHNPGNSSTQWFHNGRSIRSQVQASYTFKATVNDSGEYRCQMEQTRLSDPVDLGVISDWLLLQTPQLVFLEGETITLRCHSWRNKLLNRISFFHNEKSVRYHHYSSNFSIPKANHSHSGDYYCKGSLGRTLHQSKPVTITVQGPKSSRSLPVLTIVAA
Described as above. The protocol: as §1, §2

In assay [4] the target is T4, recombinant polyhistidine tagged mouse FcγRIII (R&D Systems) (mouse, UniProt P08508 31-215).
T4 construct: Bought
T4 sequence (looked up): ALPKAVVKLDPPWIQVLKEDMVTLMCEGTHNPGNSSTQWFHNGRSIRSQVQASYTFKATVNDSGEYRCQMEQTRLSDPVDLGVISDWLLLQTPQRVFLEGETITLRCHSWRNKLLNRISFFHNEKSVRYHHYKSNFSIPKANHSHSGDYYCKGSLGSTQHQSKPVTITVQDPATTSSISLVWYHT
The assay is described as above. The method, then: as §1, §2

Assay [5] concerns the target T5, recombinant human His-tagged FcγRI (extracellular domain, R&D Systems #1257-FC-050) (human, UniProt P12314 16-292).
T5 construct: extracellular domain; Bought; also called CD64; recombinant, soluble, human FcγRI
In words: ELISA, His-tagged FcγRI captured on HisGrab plate. The method, then:
FcγRI (CD64) ELISA —50 μl of a 1 μg/ml solution of recombinant human His-tagged FcγRI (extracellular domain, R&D Systems #1257-FC-050) in ELISA buffer (PBS, pH 7.4, 4 mg/ml BSA, 0.01% Tween-20) was added to each well of HisGrab 96 well plates (Pierce #15142) (Powers G., Notebook 9006, pp. 166-168, 180-181). The plate was incubated with shaking for 3 hours. The plates were washed 3× with 300 μl of wash buffer (PBS, 0.01% Tween-20) on a plate washer. Serial dilutions of the CNTO860 antibody Fc-variant samples were made in ELISA buffer and 50 μl per well of each titration were added in duplicate to the FcγRI-coated plates. The plates were incubated with shaking for 1 hour. The plates were washed 3× with 300 μl of wash buffer on a plate washer. 50 μl of a 1:10,000 dilution of HRP-labeled goat F(ab′)₂ anti-human IgG F(ab′)₂ (Jackson Immunoresearch # 109-036-097) in ELISA buffer was added to each well. The plates were incubated with shaking for 30 minutes. The plates were washed 3× with 300 μl of wash buffer on the plate washer. 50 μl per well TMB substrate (RDI #RDI-TMBSU-1L) was added to each well and developed for 5 minutes. The reaction was stopped by adding 100 μl 0.2 N sulfuric acid. The plates were read at OD450 on an Envision plate reader.

T5 sequence (P12314 16-292): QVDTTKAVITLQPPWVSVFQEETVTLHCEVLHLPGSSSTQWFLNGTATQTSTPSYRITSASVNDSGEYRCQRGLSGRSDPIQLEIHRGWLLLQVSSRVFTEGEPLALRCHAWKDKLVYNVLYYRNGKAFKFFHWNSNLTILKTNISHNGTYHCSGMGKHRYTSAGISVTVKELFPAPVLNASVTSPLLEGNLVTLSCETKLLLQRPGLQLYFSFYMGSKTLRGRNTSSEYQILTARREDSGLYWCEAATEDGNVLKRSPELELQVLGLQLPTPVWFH

B1: YB2/0-CNTO 860 I332E (antibody, human IgG1, kappa)
heavy: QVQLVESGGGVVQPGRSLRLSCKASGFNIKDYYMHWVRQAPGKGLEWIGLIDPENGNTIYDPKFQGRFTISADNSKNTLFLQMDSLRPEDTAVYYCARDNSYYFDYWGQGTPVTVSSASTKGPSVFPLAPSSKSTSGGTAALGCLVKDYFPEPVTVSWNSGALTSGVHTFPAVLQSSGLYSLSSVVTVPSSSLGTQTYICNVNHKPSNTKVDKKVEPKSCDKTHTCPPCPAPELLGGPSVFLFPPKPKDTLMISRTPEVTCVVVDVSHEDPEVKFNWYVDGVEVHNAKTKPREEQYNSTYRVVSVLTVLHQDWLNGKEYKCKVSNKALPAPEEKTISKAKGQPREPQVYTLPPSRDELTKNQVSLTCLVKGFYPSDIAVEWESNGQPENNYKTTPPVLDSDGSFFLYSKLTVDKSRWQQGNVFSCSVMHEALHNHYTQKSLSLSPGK
light: DIQMTQSPSSLSASVGDRVTITCKASQDIRKYLNWYQQKPGKAPKLLIYYATSLADGVPSRFSGSGSGTDYTFTISSLQPEDIATYYCLQHGESPYTFGQGTKLEITRTVAAPSVFIFPPSDEQLKSGTASVVCLLNNFYPREAKVQWKVDNALQSGNSQESVTEQDSKDSTYSLSSTLTLSKADYEKHKVYACEVTHQGLSSPVTKSFNRGEC
modifications: Heavy chain N297 carries the YB2/0-type low-fucose N-linked glycan; not carried by the letters.
notes: IgG1/kappa Fc variant; stably expressed in YB2/0 cells (p4148/p2402), low-fucose glycan; EU numbering; also called I332E (YB2/0 cell-derived); I332E from YB2/0 cells; copies: 2 + 2
Consider B1, for which the “ECOD1 (concentration required for an O.D. value of 1.0)” value (from here on “ECOD1”) is 5000 ng/mL in assay [1], 7 ng/mL in assay [2], 700 ng/mL in assay [3] and 600 ng/mL in assay [4]. The “concentration (ng/ml) required for an O.D. value of 1.0” value (shortened to “concentration (ng/ml) required”) in assay [5] came out at 300 ng/mL.

B2: YB2/0-CNTO 860 WT (antibody, human IgG1, kappa)
heavy: not shown
light: DIQMTQSPSSLSASVGDRVTITCKASQDIRKYLNWYQQKPGKAPKLLIYYATSLADGVPSRFSGSGSGTDYTFTISSLQPEDIATYYCLQHGESPYTFGQGTKLEITRTVAAPSVFIFPPSDEQLKSGTASVVCLLNNFYPREAKVQWKVDNALQSGNSQESVTEQDSKDSTYSLSSTLTLSKADYEKHKVYACEVTHQGLSSPVTKSFNRGEC
modifications: Heavy chain N297 carries the YB2/0-type N-linked glycan (40-60% fucosylated); not carried by the letters.
notes: Anti-human tissue factor human IgG1/kappa; stably expressed in rat YB2/0 cells (p2401/p2402; YB2/0 Abs typically 40-60% fucosylated), purified by protein A; also called WT (YB2/0 cell-derived); WT from YB2/0 cells; copies: 2 + 2
For the molecule B2, the “ECOD1” value was determined as 12000 ng/mL in assay [1], 30 ng/mL in assay [2], 3000 ng/mL in assay [3] and 4000 ng/mL in assay [4]. Moreover, in assay [5], the “concentration (ng/ml) required” value turned out to be 420 ng/mL.

B3: YB2/0-CNTO 860 S239D/I332E (antibody, human IgG1, kappa)
heavy: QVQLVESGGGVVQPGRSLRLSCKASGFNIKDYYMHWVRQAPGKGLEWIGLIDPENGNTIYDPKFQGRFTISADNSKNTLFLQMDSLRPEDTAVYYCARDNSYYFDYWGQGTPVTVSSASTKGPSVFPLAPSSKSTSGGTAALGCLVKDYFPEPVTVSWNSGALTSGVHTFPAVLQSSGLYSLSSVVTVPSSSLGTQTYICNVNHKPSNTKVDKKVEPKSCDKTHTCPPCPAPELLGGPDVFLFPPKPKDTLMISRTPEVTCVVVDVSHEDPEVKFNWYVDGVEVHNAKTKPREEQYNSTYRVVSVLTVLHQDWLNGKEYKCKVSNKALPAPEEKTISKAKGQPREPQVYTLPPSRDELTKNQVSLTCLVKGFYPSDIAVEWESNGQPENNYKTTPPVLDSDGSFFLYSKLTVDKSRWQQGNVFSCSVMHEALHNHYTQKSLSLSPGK
light: DIQMTQSPSSLSASVGDRVTITCKASQDIRKYLNWYQQKPGKAPKLLIYYATSLADGVPSRFSGSGSGTDYTFTISSLQPEDIATYYCLQHGESPYTFGQGTKLEITRTVAAPSVFIFPPSDEQLKSGTASVVCLLNNFYPREAKVQWKVDNALQSGNSQESVTEQDSKDSTYSLSSTLTLSKADYEKHKVYACEVTHQGLSSPVTKSFNRGEC
modifications: N-linked glycan at heavy chain Asn297 (YB2/0-type, low fucose); not carried by the letters
notes: IgG1/kappa Fc variant; stably expressed in YB2/0 cells (p4179/p2402); EU numbering; also called S239D/I332E (YB2/0 cell-derived); copies: 2 + 2
In the case of B3, the “ECOD1” value worked out at 1900 ng/mL in assay [1], 7 ng/mL in assay [2], 6000 ng/mL in assay [3] and 2800 ng/mL in assay [4]. Moreover, the “concentration (ng/ml) required” value in assay [5] turned out to be 300 ng/mL.

B4: YB2/0-CNTO 860 V264I/I332E (antibody, human IgG1, kappa)
heavy: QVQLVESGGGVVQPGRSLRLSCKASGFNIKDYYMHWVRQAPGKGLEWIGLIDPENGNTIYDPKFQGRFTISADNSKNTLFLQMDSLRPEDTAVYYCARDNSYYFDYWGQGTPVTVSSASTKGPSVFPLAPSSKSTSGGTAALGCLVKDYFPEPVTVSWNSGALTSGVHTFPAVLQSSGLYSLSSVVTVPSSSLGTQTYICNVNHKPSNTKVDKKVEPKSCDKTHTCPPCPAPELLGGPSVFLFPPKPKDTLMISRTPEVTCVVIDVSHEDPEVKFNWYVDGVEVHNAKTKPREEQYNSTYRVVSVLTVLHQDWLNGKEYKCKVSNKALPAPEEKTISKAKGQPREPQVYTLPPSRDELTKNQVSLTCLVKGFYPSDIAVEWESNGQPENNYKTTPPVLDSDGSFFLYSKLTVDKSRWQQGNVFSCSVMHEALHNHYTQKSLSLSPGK
light: DIQMTQSPSSLSASVGDRVTITCKASQDIRKYLNWYQQKPGKAPKLLIYYATSLADGVPSRFSGSGSGTDYTFTISSLQPEDIATYYCLQHGESPYTFGQGTKLEITRTVAAPSVFIFPPSDEQLKSGTASVVCLLNNFYPREAKVQWKVDNALQSGNSQESVTEQDSKDSTYSLSSTLTLSKADYEKHKVYACEVTHQGLSSPVTKSFNRGEC
modifications: N-linked glycan at heavy chain Asn297 (YB2/0-type, low fucose); not carried by the letters
notes: IgG1/kappa Fc variant; stably expressed in YB2/0 cells (p4180/p2402); EU numbering; also called V264I/I332E (YB2/0 cell-derived); copies: 2 + 2
Consider B4, for which the “ECOD1” value in assay [1] worked out at 3000 ng/mL; in assay [2], 7 ng/mL; in assay [3], 1600 ng/mL; in assay [4] it was 6000 ng/mL. Also, the “concentration (ng/ml) required” value in assay [5] came out at 480 ng/mL.
